Data taken from patent US10772928B2, “Modulation and detection of a neuronal alternative splicing regulatory network for treatment and diagnosis of neurological disorders” (The Governing Council of the University of Toronto, priority 2014, dated 2020).

Target: T1, nSR100 (Mus musculus, UniProt Q8BKA3)
T1 construct: host or cells: mouse N2A cells
T1 sequence (Q8BKA3 1-608): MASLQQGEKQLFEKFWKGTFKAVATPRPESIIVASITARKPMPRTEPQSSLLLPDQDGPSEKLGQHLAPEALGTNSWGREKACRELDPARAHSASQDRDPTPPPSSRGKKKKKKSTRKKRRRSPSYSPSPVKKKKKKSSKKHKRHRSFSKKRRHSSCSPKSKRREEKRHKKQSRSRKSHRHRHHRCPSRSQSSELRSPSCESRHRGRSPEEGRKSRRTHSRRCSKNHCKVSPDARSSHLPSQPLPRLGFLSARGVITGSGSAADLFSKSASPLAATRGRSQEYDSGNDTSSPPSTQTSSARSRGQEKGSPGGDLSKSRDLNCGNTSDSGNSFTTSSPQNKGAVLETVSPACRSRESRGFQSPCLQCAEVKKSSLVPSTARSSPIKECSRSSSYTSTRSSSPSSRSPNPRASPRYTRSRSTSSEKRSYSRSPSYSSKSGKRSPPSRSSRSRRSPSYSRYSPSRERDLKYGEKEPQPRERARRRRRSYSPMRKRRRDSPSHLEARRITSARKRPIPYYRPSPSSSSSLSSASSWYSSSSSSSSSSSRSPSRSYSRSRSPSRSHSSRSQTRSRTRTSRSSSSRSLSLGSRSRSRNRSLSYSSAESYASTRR
Assay: AP-MS nSR100 interaction partners from mouse N2A cells (Table 5)
Format: binding
Details: for AvgP (average of the SAINT scores) / MaxP (maximal SAINT score): bait Srrm4; for FoldChange between the prey Avg spectra of the bait and control purifications: bait Srrm4, 0.1 added to prevent division by 0; for AvgSpec (average number of spectra per replicate): bait Srrm4, 2 replicates; for Spectra (number of spectra for the prey in the purification of the bait): AP-MS; for SpecSum: bait Srrm4, sum of spectra over 2 replicates

[1] = bait Srrm4, biological replicate 1 (first number of the cell)
[2] = bait Srrm4, biological replicate 2 (second number of the cell)

Text: By applying affinity purification coupled to mass-spectrometry (AP-MS), several interaction nSR100 partner proteins were detected that provide insight into mechanisms of post-translational regulation of nSR100 levels.

Molecule	AvgP (average of the SAINT scores)	MaxP (maximal SAINT score)	FoldChange between the prey Avg spectra of the bait and control purifications	AvgSpec (average number of spectra per replicate)	Spectra (number of spectra for the prey in the purification of the bait) [1]	Spectra (number of spectra for the prey in the purification of the bait) [2]	SpecSum
Prpf19 (protein, UniProt Q99KP6 2-504, looked up) Pre-mRNA-processing factor 19: SLICSISNEVPEHPCVSPVSNHVYERRLIEKYIAENGTDPINNQPLSEEQLIDIKVAHPIRPKPPSATSIPAILKALQDEWDAVMLHSFTLRQQLQTTRQELSHALYQHDAACRVIARLTKEVTAAREALATLKPQAGLIVPQAVPSSQPSVVGAGEPMDLGELVGMTPEIIQKLQDKATVLTTERKKRGKTVPEELVKPEELSKYRQVASHVGLHSASIPGILALDLCPSDTNKILTGGADKNVVVFDKSTEQILATLKGHTKKVTSVVFHPSQELVFSASPDATIRIWSVPNTSCVQVVRAHESAVTGLSLHATGDYLLSSSDDQYWAFSDIQTGRVLTKVTDETSGCSLTCAQFHPDGLIFGTGTMDSQIKIWDLKERTNVANFPGHSGPITSIAFSENGYYLATAADDSSVKLWDLRKLKNFKTLQLDNNFEVKSLIFDQSGTYLALGGTDVQIYICKQWTEILHFTEHSGLTTGVAFGHHAKFIASTGMDRSLKFYSL	0.91	1	5.71	20	11	29	40
Smc3 (protein, UniProt Q9CW03 1-1217, looked up) Structural maintenance of …: MYIKQVIIQGFRSYRDQTIVDPFSSKHNVIVGRNGSGKSNFFYAIQFVLSDEFSHLRPEQRLALLHEGTGPRVISAFVEIIFDNSDNRLPIDKEEVSLRRVIGAKKDQYFLDKKMVTKNDVMNLLESAGFSRSNPYYIVKQGKINQMATAPDSQRLKLLREVAGTRVYDERKEESISLMKETEGKREKINELLKYIEERLHTLEEEKEELAQYQKWDKMRRALEYTIYNQELNETRAKLDELSAKRETSGEKSRQLRDAQQDARDKMEDIERQVRELKTKISAMKEEKEQLSAERQEQIKQRTKLELKAKDLQDELAGNSEQRKRLLKERQKLLEKIEEKQKELAETEPKFNSVKEKEERGIARLAQATQERTDLYAKQGRGSQFTSKEERDKWIKKELKSLDQAINDKKRQIAAIHKDLEDTEANKEKNLEQYNKLDQDLNEVKARVEELDRKYYEVKNKKDELQSERNYLWREENAEQQALAAKREDLEKKQQLLRAATGKAILNGIDSINKVLEHFRRKGINQHVQNGYHGIVMNNFECEPAFYTCVEVTAGNRLFYHIVDSDEVSTKILMEFNKMNLPGEVTFLPLNKLDVRDTAYPETNDAIPMISKLRYNPRFDKAFKHVFGKTLICRSMEVSTQLARAFTMDCITLEGDQVSHRGALTGGYYDTRKSRLELQKDVRKAEEELGELEAKLNENLRRNIERINNEIDQLMNQMQQIETQQRKFKASRDSILSEMKMLKEKRQQSEKTFMPKQRSLQSLEASLHAMESTRESLKAELGTDLLSQLSLEDQKRVDALNDEIRQLQQENRQLLNERIKLEGIITRVETYLNENLRKRLDQVEQELNELRETEGGTVLTATTSELEAINKRVKDTMARSEDLDNSIDKTEAGIKELQKSMERWKNMEKEHMDAINHDTKELEKMTNRQGMLLKKKEECMKKIRELGSLPQEAFEKYQTLSLKQLFRKLEQCNTELKKYSHVNKKALDQFVNFSEQKEKLIKRQEELDRGYKSIMELMNVLELRKYEAIQLTFKQVSKNFSEVFQKLVPGGKATLVMKKGDVEGSQSQDEGEGSGESERGSGSQSSVPSVDQFTGVGIRVSFTGKQGEMREMQQLSGGQKSLVALALIFAIQKCDPAPFYLFDEIDQALDAQHRKAVSDMIMELAVHAQFITTTFRPELLESADKFYGVKFRNKVSHIDVITAEMAKDFVEDDTTHG	0.91	0.96	7	7	6	8	14
Cdk11b (protein, UniProt P24788 1-784, looked up) Cyclin-dependent kinase 11B: MGDEKDSWKVKTLDEILQEKKRRKEQEEKAEIKRLKNSDDRDSKRDSLEEGELRDHRMEITIRNSPYRREDSMEDRGEEDDSLAIKPPQQMSRKEKAHHRKDEKRKEKRRHRSHSAEGGKHARVKEKEREHERRKRHREEQDKARREWERQKRREMAREHSRRERDRLEQLERKRERERKLREQQKEQREQKERERRAEERRKEREARREVSAHHRTMREEYSDKGKVGHWSRSPLRPPRERFEMGDNRKPVKEEKVEERDLLSDLQDISDSERKTSSAESSSAESGSGSEEEEEEEEEEEEEEGSTSEESEEEEEEEEEEEEEETGSNSEEASEQSAEEVSDEEMSEDEDRENENHILVVPESRFDRDSGDSEEGEEEVGEGTPQSSAPTEGDYVPDSPALSPIELKQELPKYLPALQGCRSVEEFQCLNRIEEGTYGVVYRAKDKKTDEIVALKRLKMEKEKEGFPITSLREINTILKAQHPNIVTVREIVVGSNMDKIYIVMNYVEHDLKSLMETMKQPFLPGEVKTLMIQLLSGVKHLHDNWILHRDLKTSNLLLSHAGILKVGDFGLAREYGSPLKAYTPVVVTLWYRAPELLLGAKEYSTAVDMWSVGCIFGELLTQKPLFPGKSDIDQINKIFKDLGTPSEKIWPGYNDLPAVKKMTFSEYPYNNLRKRFGALLSDQGFDLMNKFLTYYPGRRINAEDGLKHEYFRETPLPIDPSMFPTWPAKSEQQRVKRGTSPRPPEGGLGYSQLGDDDLKETGFHLTTTNQGASAAGPGFSLKF	0.9	0.98	3.43	12	13	11	24
Crnkl1 (protein, UniProt P63154 1-690, looked up) Crooked neck-like protein 1: MAASTAAGKQRIPKVAKVKNKAPAEVQITAEQLLREAKERELELLPPPPQQKITDEEELNDYKLRKRKTFEDNIRKNRTVISNWIKYAQWEESLKEIQRARSIYERALDVDYRNITLWLKYAEMEMKNRQVNHARNIWDRAITTLPRVNQFWYKYTYMEEMLGNVAGARQVFERWMEWQPEEQAWHSYINFELRYKEVERARTIYERFVLVHPAVKNWIKYARFEEKHAYFAHARKVYERAVEFFGDEHMDEHLYVAFAKFEENQKEFERVRVIYKYALDRISKQEAQELFKNYTIFEKKFGDRRGIEDIIVSKRRFQYEEEVKANPHNYDAWFDYLRLVESDAEADTVREVYERAIANVPPIQEKRHWKRYIYLWVNYALYEELEAKDPERTRQVYQASLELIPHKKFTFAKMWLYYAQFEIRQKNLPFARRALGTSIGKCPKNKLFKGYIELELQLREFDRCRKLYEKFLEFGPENCTSWIKFAELETILGDIERARAIYELAISQPRLDMPEVLWKSYIDFEIEQEETERTRNLYRQLLQRTQHVKVWISFAQFELSSGKEGSVAKCRQIYEEANKTMRNCEEKEERLMLLESWRSFEDEFGTVSDKERVDKLMPEKVKKRRKVQADDGSDAGWEEYYDYIFPEDAANQPNLKLLAMAKLWKKQQQEREAAEQDPDKDIDESESSSF	0.95	0.95	20	2	2|2	2|2	4
Csnk1e (protein, UniProt Q9JMK2 1-416, looked up) Casein kinase I isoform …: MELRVGNKYRLGRKIGSGSFGDIYLGANIASGEEVAIKLECVKTKHPQLHIESKFYKMMQGGVGIPSIKWCGAEGDYNVMVMELLGPSLEDLFNFCSRKFSLKTVLLLADQMISRIEYIHSKNFIHRDVKPDNFLMGLGKKGNLVYIIDFGLAKKYRDARTHQHIPYRENKNLTGTARYASINTHLGIEQSRRDDLESLGYVLMYFNLGSLPWQGLKAATKRQKYERISEKKMSTPIEVLCKGYPSEFSTYLNFCRSLRFDDKPDYSYLRQLFRNLFHRQGFSYDYVFDWNMLKFGAARNPEDVDRERREHEREERMGQLRGSATRALPPGPPTGATANRLRSAAEPVASTPASRIQQTGNTSPRAISRADRERKVSMRLHRGAPANVSSSDLTGRQEVSRLAASQTSVPFDHLGK	0.91	0.96	7	7	6	8	14
